Measured values published in the supplement of paper PMC12764529.
± gives the half width of the 95% confidence interval.

How the values were obtained:
[1] = folding stability dG unfold from trypsin proteolysis; higher = more stable
Experimental: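 Folding stability of de novo designed mini-proteins (<80 aa, no Cys; designed by TrROS, TrMRF, ProteinMPNN and the joint model) was measured by cDNA display proteolysis with trypsin and chymotrypsin. Each protease was used at 11 concentrations in a threefold dilution series plus a no-protease condition. K50 was inferred by Bayesian fitting of sequencing counts, and dG unfold was derived against a sequence-predicted unfolded-state K50 (Tsuboyama et al. method). Sequences shown include variable-length N-terminal GS-type padding (SAGGSAGG...) inside a display construct carrying a PA tag. Rows were kept only if the AF2 dimer inter-PAE was >15, to exclude likely homo-oligomers.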

[2] = folding stability dG unfold (combined trypsin and chymotrypsin); higher = more stable
Method in brief: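 Designed mini-proteins with no cysteine and under 80 residues were kept only if AlphaFold2 dimer inter-PAE was above 15. In a PA-tagged cDNA display construct, they were digested with trypsin and chymotrypsin and then sequenced. K50 was inferred by Bayesian fitting of counts, and unfolding free energy was derived per protease or combined against a sequence-predicted unfolded-state K50 and a shared folded-state K50.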

For “SAGGSAGGSAGGMVVTVKVGDETIEIDTETGTATVTPPATGTTTTVPASEVEPITPELLSAGGSAGGSAGGS [r10_709_JUSTAS]”, the “folding stability dG unfold” value [1] was 0.945 ± 0.076 kcal/mol and the “folding stability dG unfold” value [2] was 0.123 ± 0.065 kcal/mol.

With “SAGMEAEAERIAEELERELPPTYRITSITVTPQPDNTWVAPITIEKVDAEGRVLGPSTVTVTLPPGLGSAGG [r19_28_JUSTAS]” the “folding stability dG unfold” value [1] was 0.494 ± 0.044 kcal/mol and the “folding stability dG unfold” value [2] was -0.452 ± 0.14 kcal/mol.

For “SAAVSFTPDGRPRRLEPVPPVPPVIEIPVPLNIPESDPAKKEALRKEIKEKIMKELGLPESVPVKVILLSAG [r14_453_JUSTAS]”, the “folding stability dG unfold” value [1] was 0.199 ± 0.15 kcal/mol and the “folding stability dG unfold” value [2] was -0.158 ± 0.55 kcal/mol.

With “SAGGSMIEVEIENPDPSVSPEEIAERVIRELTPDGGPLQPLEIKPTLVGDKPVYKIKIYIPDPELIKESAGG [r13_979_JUSTAS]” the “folding stability dG unfold” value [1] was -0.519 ± 0.2 kcal/mol and the “folding stability dG unfold” value [2] was less than -1 kcal/mol.

In the case of “SAGGNWIMIELPLDDLKNAKPNQKVKIEWPDGKPFEVNAHRHDGRYPVLVRNPENPDKWEPIGEIEIESAGG [r13_745_TrROS]”, the “folding stability dG unfold” value [1] is reported as -0.0737 ± 0.11 kcal/mol and the “folding stability dG unfold” value [2] is reported as less than -1 kcal/mol.

In the case of “SAGGSAGGDPSRLPVITPETFNVPVPAPGGVNETVTVTVIKLPGGETIVTTTYPDGKTTTELIPSAGGSAGG [r6_111_JUSTAS]”, the “folding stability dG unfold” value [1] is reported as 0.927 ± 0.058 kcal/mol and the “folding stability dG unfold” value [2] is reported as 0.182 ± 0.15 kcal/mol.

For “SAGMEIKIEKLEDGTYKITIKLYNKETNEEIEEIEIEVKKLKDGTYKVKIKIKNKETGKEFELEFEIKPSAG [r5_610_TrROS_Hall]”, the “folding stability dG unfold” value [1] was 4.02 ± 0.34 kcal/mol and the “folding stability dG unfold” value [2] was greater than 6 kcal/mol.

With “SAGGSAGGSAGGSMKVEPLPHPDRPVTVETTPDSITVTDPANPPATTTFSSSSTVSVDSSAGGSAGGSAGGS [r4_321_JUSTAS]” the “folding stability dG unfold” value [1] was -0.122 ± 0.078 kcal/mol and the “folding stability dG unfold” value [2] was -0.505 ± 0.44 kcal/mol.

For “SAGGSAGGSVKELAKKLNIKEVKVEPVDGEKVTLIKIKVKNKKTKKEYEKTILIKDKKTGKILSAGGSAGGS [r12_133_TrROS_Hall]”, the “folding stability dG unfold” value [1] was -0.405 ± 0.23 kcal/mol and the “folding stability dG unfold” value [2] was -0.845 ± 0.38 kcal/mol.

For “SAGGSAGGMSTISVTVPPNVSVEEVKERLKKENPNSKYEILSVSKGPGTVKAKIAYDPLPEELLSAGGSAGG [r6_623_JUSTAS]”, the “folding stability dG unfold” value [1] was -0.782 ± 0.22 kcal/mol and the “folding stability dG unfold” value [2] was less than -1 kcal/mol.

For “SAGGSAGGSAGGMKPGEPVEIKIPVPGNGKKIPIEIPVGMPPEQARKFAKEIAEELEKNHSAGGSAGGSAGG [r7_957_TrROS]”, the “folding stability dG unfold” value [1] was -0.916 ± 0.2 kcal/mol and the “folding stability dG unfold” value [2] was less than -1 kcal/mol.

In the case of “SAGGSAGGSETSIVFLEEEVLVEEEITLYRDGTPTRERRVRTERVVIRVPVKPEEDVNNPLLLSAGGSAGGS [r12_713_JUSTAS]”, the “folding stability dG unfold” value [1] is reported as -0.765 ± 0.82 kcal/mol and the “folding stability dG unfold” value [2] is reported as less than -1 kcal/mol.

For “SAGGYDKEGKPIRVVEINIPPDQPDTILKFAREEIDNNRWDIIHITSPNQVKWIKQAFPEKGIPIHIQSAGG [r13_353_TrROS]”, the “folding stability dG unfold” value [1] was 0.311 ± 0.3 kcal/mol and the “folding stability dG unfold” value [2] was -0.167 ± 0.38 kcal/mol.

For “SAGGSAGGSAGMKTYTVPLPGGDPALIEQTAQDIVEKIPGLEDHEVKVDAGDDGTLTIVESAGGSAGGSAGG [r17_324_JUSTAS]”, the “folding stability dG unfold” value [1] was -0.736 ± 0.16 kcal/mol and the “folding stability dG unfold” value [2] was less than -1 kcal/mol.

In the case of “SAGGSAGGGMVTVEIPLEVTLTTSLTPEPGTAQTVTLPVVVTIEFPPGNPEKLKKEVEKIKKKSSAGGSAGG [r6_280_JUSTAS]”, the “folding stability dG unfold” value [1] is reported as -0.456 ± 0.2 kcal/mol and the “folding stability dG unfold” value [2] is reported as less than -1 kcal/mol.

With “SAEIEELARKLAEELGAEVVEVKVEKLPNGTVKVTVVVRVNGELYKVTIEYDKETKEITIKIEKLPEEESAG [r14_784_TrROS_Hall]” the “folding stability dG unfold” value [1] was 3.81 ± 0.48 kcal/mol and the “folding stability dG unfold” value [2] was greater than 6 kcal/mol.

With “SAGGSMPITVSVPVPPDVPLEEVAERIEKELREAGIEADVREVTRVPGEGRILLHFDAGKTGVIPASAGGSA [r2_242_JUSTAS]” the “folding stability dG unfold” value [1] was -0.251 ± 0.12 kcal/mol and the “folding stability dG unfold” value [2] was less than -1 kcal/mol.

In the case of “SAGGSAGGSATITISLGPPEYIEVYDPANGVKRKFPASVPKEEVAAEIEKEYPDTPVVFTTDASAGGSAGGS [r12_423_JUSTAS]”, the “folding stability dG unfold” value [1] is reported as 0.394 ± 0.06 kcal/mol and the “folding stability dG unfold” value [2] is reported as -0.172 ± 0.32 kcal/mol.

In the case of “SAGGSAGGSAGKITIRNPENGYAIKIKFGDKEKTIPIDPDQIDEFLEKLPGIKVEPYPWKSAGGSAGGSAGG [r11_57_TrROS]”, the “folding stability dG unfold” value [1] is reported as -0.574 ± 0.2 kcal/mol and the “folding stability dG unfold” value [2] is reported as -0.899 ± 0.59 kcal/mol.

In the case of “SAKPIPAKDITINMHPPPGGNFNFEIELDDKEIGEHPFKSPEDMQEGMKEIAKELAALLGPDDIKIKPWSAG [r14_791_TrROS]”, the “folding stability dG unfold” value [1] is reported as 0.4 ± 0.075 kcal/mol and the “folding stability dG unfold” value [2] is reported as -0.0161 ± 0.25 kcal/mol.

With “SAGGSAGGSSVLRVTVEIPETGETVELTVPPSVTEEDVRARIEAEGHAIEKIEVTESEVPPLASAGGSAGGS [r12_955_JUSTAS]” the “folding stability dG unfold” value [1] was -0.358 ± 0.096 kcal/mol and the “folding stability dG unfold” value [2] was less than -1 kcal/mol.

For “SAGGSAGGDGHPDILNAVFTRTETFYREGDDEPGGEGTREILVVVTGDNPENPELALKEAEEAASAGGSAGG [r6_928_TrMRF]”, the “folding stability dG unfold” value [1] was 0.601 ± 0.055 kcal/mol and the “folding stability dG unfold” value [2] was 0.0849 ± 0.18 kcal/mol.

With “SAGGSAGGSAGGSDELLKELAQENGMKVTAEPMPEEGHFNIEVQSPNGKPIEIEIPLDDSAGGSAGGSAGGS [r4_121_TrROS]” the “folding stability dG unfold” value [1] was 0.128 ± 0.15 kcal/mol and the “folding stability dG unfold” value [2] was -0.0556 ± 0.26 kcal/mol.

With “SAGGSAGGSMPLRLAPVPIFLPEEEAVPVIEKLIEEGTEGGVGLIVPNVISPEEAGVHPDEPVSAGGSAGGS [r12_93_TrMRF]” the “folding stability dG unfold” value [1] was -0.263 ± 0.08 kcal/mol and the “folding stability dG unfold” value [2] was less than -1 kcal/mol.

In the case of “SAGGSAGGSAGAAPDETTVTTTVTPSPGTTTVTTTTYTYAPPTNTVTSTTTTTTIPAGTASAGGSAGGSAGG [r11_237_JUSTAS]”, the “folding stability dG unfold” value [1] is reported as 0.659 ± 0.057 kcal/mol and the “folding stability dG unfold” value [2] is reported as 0.127 ± 0.36 kcal/mol.

With “DWKTRTVMFPVPPGDLEEAKDRAKELAKELPPGNKIEIEMPNPDGHYFMVTVTVDPNGEIDIDVSPGMRPIS [r1_350_TrROS]” the “folding stability dG unfold” value [1] was -0.418 ± 0.29 kcal/mol and the “folding stability dG unfold” value [2] was -0.547 ± 0.38 kcal/mol.

For “SAGGSAGGSAGGEESRRVTVTETVYPVYPGVGIIRVTRTVTTPDATTTSTTLVFVPPGLPSAGGSAGGSAGG [r17_465_JUSTAS]”, the “folding stability dG unfold” value [1] was -0.433 ± 0.24 kcal/mol and the “folding stability dG unfold” value [2] was less than -1 kcal/mol.

In the case of “SAGGSAGGSAGPPVLVSINPDENATVEVRTRPDGKPVLLFTVPKTGEVLVVHPDGKIDNSSAGGSAGGSAGG [r11_601_TrMRF]”, the “folding stability dG unfold” value [1] is reported as -0.0916 ± 0.17 kcal/mol and the “folding stability dG unfold” value [2] is reported as -0.246 ± 0.35 kcal/mol.

With “SAGGSAGGSAGGKPKITITQEQHPNGMHRVNVRNPNGKPIGEVPFDSPQQLEEAKEFLLDSAGGSAGGSAGG [r7_476_TrROS]” the “folding stability dG unfold” value [1] was -0.608 ± 0.3 kcal/mol and the “folding stability dG unfold” value [2] was less than -1 kcal/mol.

With “SAGGSAGGSAGGSMIVDTKVPENSVAYTPDGKKIGPEEVKKALEEGLGYIGSTPVPPGLSAGGSAGGSAGGS [r4_47_JUSTAS]” the “folding stability dG unfold” value [1] was 0.127 ± 0.029 kcal/mol and the “folding stability dG unfold” value [2] was -0.835 ± 0.31 kcal/mol.

With “SAGGSAGGSAGGSPEVVPVDHPDRELLLVRFPDSVVLTDPSAPGASRTFPADTDVVVDASAGGSAGGSAGGS [r4_321_TrMRF]” the “folding stability dG unfold” value [1] was -1.37 ± 0.41 kcal/mol and the “folding stability dG unfold” value [2] was less than -1 kcal/mol.

In the case of “SAGGSAGGSSSPEEIKAEFKKKGYPKVEVKPVTPDTYLVTVTSPGTGKTTEYPITGSPSGKGLSAGGSAGGS [r12_170_JUSTAS]”, the “folding stability dG unfold” value [1] is reported as -0.822 ± 0.35 kcal/mol and the “folding stability dG unfold” value [2] is reported as less than -1 kcal/mol.

In the case of “SMVKAKVEVNPETNAAVVEFELPELKVIALRVFDENNEVHTLVEVEIPPGPRVPLAEIPLKPNEELVLPLSA [r9_1172_TrMRF]”, the “folding stability dG unfold” value [1] is reported as 0.0917 ± 0.26 kcal/mol and the “folding stability dG unfold” value [2] is reported as -0.685 ± 0.76 kcal/mol.

With “SAGGSASVPPGKSVTLRISFPETGEERTITLDVKSSEELEAAAELEVPRPDGTPVPVTVSVVETVPSAGGSA [r15_797_JUSTAS]” the “folding stability dG unfold” value [1] was 0.386 ± 0.094 kcal/mol and the “folding stability dG unfold” value [2] was 0.085 ± 0.24 kcal/mol.

For “SAGGTKYTVSLRPPPTALPSREFTDSPLEIVEALPEDTTEATVTVDNNSTSTTVTFTTKEDLIAAVASSAGG [r13_299_JUSTAS]”, the “folding stability dG unfold” value [1] was 0.00719 ± 0.14 kcal/mol and the “folding stability dG unfold” value [2] was -0.14 ± 0.33 kcal/mol.

For “SAGGSAGGSAMPIPALVLVERPLPDGETEEREIPVIVEPDKIDEIIEEAEKEGYKVKEVKASAGGSAGGSAG [r3_453_TrMRF]”, the “folding stability dG unfold” value [1] was -0.271 ± 0.06 kcal/mol and the “folding stability dG unfold” value [2] was less than -1 kcal/mol.
